Experimental findings from article PMC8351736 (Molecular Biology of the Cell, 2021) are described below.

T1: His-tagged Aim21 (His-Aim21) (S. cerevisiae, UniProt P40563 1-679)
T1 sequence (looked up): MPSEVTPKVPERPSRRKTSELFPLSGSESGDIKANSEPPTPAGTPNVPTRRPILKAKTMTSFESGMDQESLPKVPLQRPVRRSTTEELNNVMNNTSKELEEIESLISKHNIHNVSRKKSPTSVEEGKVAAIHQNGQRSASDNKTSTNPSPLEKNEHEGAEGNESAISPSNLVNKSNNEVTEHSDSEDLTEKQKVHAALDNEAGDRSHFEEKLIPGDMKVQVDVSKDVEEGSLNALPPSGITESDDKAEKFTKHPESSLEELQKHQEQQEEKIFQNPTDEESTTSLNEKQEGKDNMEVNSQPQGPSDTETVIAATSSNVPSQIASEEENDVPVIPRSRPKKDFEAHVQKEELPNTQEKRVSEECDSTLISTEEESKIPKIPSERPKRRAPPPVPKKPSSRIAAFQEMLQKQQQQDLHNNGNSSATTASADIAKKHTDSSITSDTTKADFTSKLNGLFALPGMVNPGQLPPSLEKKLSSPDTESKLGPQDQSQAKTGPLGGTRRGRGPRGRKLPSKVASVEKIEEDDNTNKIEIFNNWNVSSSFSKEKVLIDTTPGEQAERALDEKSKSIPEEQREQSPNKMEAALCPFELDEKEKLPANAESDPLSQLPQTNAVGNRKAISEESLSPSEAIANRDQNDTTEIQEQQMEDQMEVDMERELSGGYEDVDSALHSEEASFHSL

T2: GST-Aim21^504,507,509E (S. cerevisiae, UniProt P40563 1-679, Aim21^504,507,509E | Aim21^504,507,509E | Aim21^504,507,509E)
T2 sequence (looked up): T1 sequence (looked up) with R504E, R507E, R509E

T3: His-Tda2 K107E (S. cerevisiae, UniProt P40045 2-126, K107E)
T3 sequence: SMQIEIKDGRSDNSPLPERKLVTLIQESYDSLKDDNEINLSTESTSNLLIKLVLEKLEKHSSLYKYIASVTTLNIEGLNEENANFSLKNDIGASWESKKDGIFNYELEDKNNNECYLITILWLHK

T4: His-Tda2 I103Q (S. cerevisiae, UniProt P40045 2-126, I103Q)
T4 sequence: T3 sequence with I102Q, E106K

T5: Aim21^1-600-GST (S. cerevisiae, UniProt P40563 1-600)
T5 sequence (looked up): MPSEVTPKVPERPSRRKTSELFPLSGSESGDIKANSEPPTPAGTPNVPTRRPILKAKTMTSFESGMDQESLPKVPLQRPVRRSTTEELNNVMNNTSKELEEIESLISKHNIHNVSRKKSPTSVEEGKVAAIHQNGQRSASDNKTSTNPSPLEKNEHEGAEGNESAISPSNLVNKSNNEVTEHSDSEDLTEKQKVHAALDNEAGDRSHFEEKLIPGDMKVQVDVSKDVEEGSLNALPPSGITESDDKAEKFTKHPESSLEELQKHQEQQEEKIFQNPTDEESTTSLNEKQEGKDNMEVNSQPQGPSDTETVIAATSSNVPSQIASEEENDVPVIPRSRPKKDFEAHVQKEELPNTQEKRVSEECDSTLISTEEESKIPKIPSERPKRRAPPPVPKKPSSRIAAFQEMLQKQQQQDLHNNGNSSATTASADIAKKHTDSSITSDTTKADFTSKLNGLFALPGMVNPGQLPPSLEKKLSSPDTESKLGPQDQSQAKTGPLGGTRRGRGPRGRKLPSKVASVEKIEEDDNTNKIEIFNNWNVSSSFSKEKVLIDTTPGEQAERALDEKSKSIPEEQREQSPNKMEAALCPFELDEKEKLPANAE

B1: 6-histidine-tagged Tda2 (His-Tda2) (natural protein, S. cerevisiae)
chain: T3 sequence with E106K
B2: FITC-Aim21^CPI+TBR with 25 µM His-Tda2 (reconstituted Tda2-Aim21 peptide complex) (complex, S. cerevisiae)
peptide: KTGPLGGTRRGRGPRGRKLPSKVASVEKIEEDDNTNKIEIFNNWNVS
chain: T3 sequence with E106K
modifications: FITC label (printed FITC-KTGPLGG...)
B3: His-Tda2 F86V (natural protein, S. cerevisiae)
chain: T3 sequence with F85V, E106K
B4: FITC-labeled Aim21 peptide spanning AA 529–539 (FITC-Aim21) (peptide)
peptide: {FITC}-KIEIFNNWNVS
B5: GST-Aim21^510-555 (wild type) (domain or fragment, S. cerevisiae, UniProt P40563 510-555, looked up)
chain: KLPSKVASVEKIEEDDNTNKIEIFNNWNVSSSFSKEKVLIDTTPGE
B6: His-Tda2 D101A (natural protein, S. cerevisiae)
chain: T3 sequence with D100A, E106K
B7: 6-histidine-tagged actin capping protein (His-Cap1/2 heterodimer) (complex, S. cerevisiae)
chain 1: MSSSKFEEVINKIINDSPPGELREVYDDLIKITSENSKNTILDAIENYNVQNCIPIEVNGNSVIISKYNKEGAKFFDPVNSVIFSVNHLERKGLDIEPYEFTHAKIEKGQLKELHDKLHEYLLQSFPGDVSFAVYPVPEEISKISIIIVSTKYNPNNFWNGHWRSSYIYDLETRELSGQISTQVHYYEDGNVSFQSGKDINQSNVDDVVCTIRDIETNFENDLDLSFFDLNEKQFKALRRRLPVTRSKINWGSAIGSYRLGKNAAEGK
chain 2: MSDAQFDAALDLLRRLNPTTLQENLNNLIELQPNLAQDLLSSVDVPLSTQKDSADSNREYLCCDYNRDIDSFRSPWSNTYYPELSPKDLQDSPFPSAPLRKLEILANDSFDVYRDLYYEGGISSVYLWDLNEEDFNGHDFAGVVLFKKNQSDHSNWDSIHVFEVTTSPSSPDSFNYRVTTTIILHLDKTKTDQNSHMMLSGNLTRQTEKDIAIDMSRPLDVIFTSHVANLGSLIEDIESQMRNLLETVYFEKTRDIFHQTKNAAIASSAEEANKDAQAEVIRGLQSL
B8: FITC-labeled Aim21 peptide spanning AA 493–539, with the CPI motif and the TBR (FITC-Aim21^CPI+TBR) (peptide)
peptide: {FITC}-KTGPLGGTRRGRGPRGRKLPSKVASVEKIEEDDNTNKIEIFNNWNVS

Series [1] deals with the molecule itself. In words: SEC + other: sucrose density gradient fractionation.
In series [2] the target is T1, His-tagged Aim21 (His-Aim21). The description is as above.
Another series has as its target T2, GST-Aim21^504,507,509E. In words: pull-down.
The target of series [3] is B7. In words: fluorescence polarisation. For orientation: Fluorescence polarisation rises when a labelled molecule tumbles more slowly, as on binding a larger partner.
The series “SEC” deals with the molecule itself. In words: SEC. On the technique in general: Size exclusion chromatography separates by hydrodynamic size, large species first.
For series [4], the target named is B3. In words: fluorescence polarisation.
A further series addresses T3, His-Tda2 K107E. In words: pull-down.
The target in series [5] is B3. In words: pull-down.
The next series has as its target T4, His-Tda2 I103Q. In words: pull-down.
For another series, the target named is T5, Aim21^1-600-GST. In words: pull-down.
Series [6] addresses B7. In words: fluorescence polarisation. This is another data set of the same source.
Series [7] addresses B1. In words: fluorescence polarisation.

Residue numbers refer to the chain shown, from its start. In names and notes the source's numbering stands. Read-outs that look alike come from different tables or passages of the source. Ends that are not written are not given here. * marks the point of attachment. FITC = O=C1OC2(c3ccc(O)cc3Oc3cc(O)ccc32)c2ccc(NC(=S)*)cc21

The stoichiometry N is a count of units in the complex or per binding partner. B1: the “stoichiometry N” value in [1] was 2; in series [2] it was 2 Aim21 molecules per Tda2 homodimer. Moreover, the binding result with GST-Aim21^504,507,509E is “binds”.
Broadly, the Kd is the free concentration of one partner at which half of the binding sites on the other are occupied at equilibrium, for simple one-to-one binding. A higher Kd goes with weaker binding. In [3], B2 registered an equilibrium dissociation constant (Kd) of 250 nM.
Turning to B3, in “SEC”, the binding result was “binds”.
Regarding B4, the binding result in the series with His-Tda2 F86V [4] is on record as “binds”.
On to B5, for which the binding result in the series with His-Tda2 K107E, with His-Tda2 F86V [5] and with His-Tda2 I103Q was “binds” in each case.
For the molecule B6, the binding result in the series “SEC” is “binds”.
For the molecule B7, in the series with Aim21^1-600-GST, the binding result is listed as “binds”.
For B8, the Kd in [6] was determined as 3100 nM. The binding result in [7] is on record as “binds”.
